# Test results taken from US12673108B2 (Oxford University Innovation Limited, priority 2021, dated 2026).
# Square brackets hold non-standard residues; d marks the D form. Ends that are not written are not given here. Ahx = NCCCCCC(=O)O; βAla = NCCC(=O)O
# Experiments:
# [1] = fmoc spps; Fmoc-beta-Ala-OH preloaded Wang resin (0.19 or 0.46 mmol g-1); PyBOP/NMM; PyBOP/HOAt/DIPEA (or HBTU) for PMO conjugation; conditions: conjugation step, UV-Vis, based on PMO extinction coefficient, scale 10 pmol or 100 pmol (so in the source)
# [2] = Toxicological assessment of peptide-PMO (urinary KIM-1, NGAL; serum BUN); format: in vivo, C57BL/6 mice; conditions: for urinary KIM-1 levels: single dose 30 mg/kg (2.5-50 mg/kg); for urinary KIM-1 levels / urinary NGAL levels: urine Day 2 and Day 7, normalised to urinary creatinine; for urinary NGAL levels: single dose 30 mg/kg
# Procedure: Female C57BL/6 mice aged 8-10 weeks were administered a single 30 mg/kg dose of peptide-PMO in 0.9% saline by bolus intravenous tail vein injection. Urine was non-invasively collected under chilled conditions at Day 2 and Day 7 post-administration following 20 hours housing in metabolic cages (Tecniplast, UK). Serum was collected from jugular vein at Day 7 at necropsy, as was tibialis anterior, diaphragm and heart tissue.
# The same procedure was followed at different single dosage amounts ranging from 2.5 mg/kg up to 50 mg/kg of peptide-PMO in 0.9% saline by intravenous tail vein injection.
# Urinary levels of KIM-1 (Kidney injury molecule-1) and NGAL (Neutrophil Gelatinase-Associated Lipocalin) were quantified by ELISA (KIM-1 R&D cat #MKM100, NGAL R&D cat #MLCN20) following appropriate dilution of urine to fit standard curves. Values were normalised to urinary creatinine levels that were quantified at MRC Harwell Institute, Mary Lyon Centre, Oxfordshire, UK. Serum blood urea nitrogen levels were quantified at MRC Harwell Institute, Mary Lyon Centre, Oxfordshire, UK.
# All levels were quanitifed on an AU680 Clinical Chemistry Analyser, Beckman Coulter. Quantification of exon skipping efficacy was determined by quantitative RT-PCR of exon 23 skipped and unskipped transcripts and expressed as percentage of skipped versus total (skipped and unskipped) transcripts (see Table 7 for sequences).
# dystrophin = conditions: in vivo; cited from earlier work
# [3] = Recovery times of mice after injection with peptide-PMOCAG7 conjugates; format: in vivo, C57BL6 mice; conditions: 12.5 mg/kg; HSA-LR mice; age 8-12 weeks
# Procedure: Animal experiments and ASO injections. Experiments were carried out in the University of Oxford according to UK legislation. The intravenous injections in HSA-LR C57BL/6 mice were performed by single or repeated administrations via the tail vein. Doses of 30, 12.5, 7.5 and 5 mg/kg of peptide-PMO-CAG7 (SEQ ID NO: 192) were diluted in 0.9% saline and given at a volume of 5-6 pL/g of body weight. KIM-1 levels in C57BL6 female mice measured by ELISA (R&D cat #MKM100) with samples diluted to fit within standard curve. Values were normalised to urinary creatinine levels (Harwell) to account for urine protein concentration.
# human hepatocytes = test: Hepatocyte cell viability (fluorescent-based assay); conditions: 40 uM
# Procedure: Immortalized myoblasts from healthy individual or DM1 patient with 2600 CTG repeats were cultivated in a growth medium consisting of a mix of M199: DMEM (1:4 ratio; Life technologies) supplemented with 20% FBS (Life technologies), 50 µg/ml gentamycin (Life technologies), 25 pg/ml fetuin, 0.5 ng/ml bFGF, 5 ng/ml EGF and 0.2 pg/ml dexamethasone (Sigma-Aldrich). Myogenic differentiation was induced by switching confluent cell cultures to DMEM medium supplemented with 5 pg/ml insulin (Sigma-Aldrich) for myoblasts. For treatment, WT or DM1 cells are differentiated for 4 days. Then, medium was changed with fresh differentiation medium with peptide-PMOs at a 1, 2, 5 10, 20 or 40 pM concentration. Cells were harvested for analysis 48 h after treatment. Cell viability was quantified in after 2 days of transfection of peptide-PMOs at 40 uM in human hepatocytes or at a 1, 2, 5 10, 20 or 40 pM concentration in human myoblasts using a fluorescent-based assay (Promega).
substance,measurement,setting,value
"Ac-RBRRBRFQILYBRBR-(E)-PMO (GGCCAAACCTCGGCTTACCTGAAAT; peptide Ac-RBRRBRFQILYBRBR-(E) conjugated, chemistry not fully specified)",conjugation yield,[1],39%
"Ac-RBRRBRRFQILYRBHBH-(Ab)-PMO (GGCCAAACCTCGGCTTACCTGAAAT; listed as DNA, chemistry not fully specified)",conjugation yield,[1],26%
"DPEP 1.9 (Ac-R[βAla]RR[βAla]RFQILY[βAla]R[βAla]R[βAla]; also: PMO conjugate, site not given here)",urinary KIM-1 levels,[2],lowest levels
same,urinary NGAL levels,[2],lowest levels
"DPEP 3.8 (Ac-R[βAla]RR[βAla]RFQILYR[βAla]H[βAla]H[βAla]; also: PMO conjugate, site not given here)",urinary KIM-1 levels,[2],lowest levels
same,urinary NGAL levels,[2],lowest levels
"Pip9b2 (Ac-R[Ahx]RR[βAla]RRFQILYR[βAla]R[Ahx]R[βAla]; also: PMO conjugate, site not given here) [reference compound]",Serum blood urea nitrogen levels,[2]; 7 days after single dose of 30 mg/kg,elevated
eteplirsen,levels of dystrophin restoration,dystrophin,approximately 1 % of normal dystrophin levels
"pip6a: prior peptide carrier AC-RXRRBRRXR-YQFLI-RXRBRXR-B conjugated to [CAG]7 PMO (SEQ ID NO: 192) (Ac-R[Ahx]RR[βAla]RR[Ahx]RYQFLIR[Ahx]R[βAla]R[Ahx]R[βAla]; also: conjugated to [CAG]7 PMO, site not given here) [reference compound]","Recovery time after injection, Time AV ± SD",[3],>60 min
same,percentage hepatocyte cell viability,human hepatocytes,cell mortality
